Tests used:
[1] = target: GntC N52D (Sphaerospermopsis torques-reginae ITEP-024); assay: SEC; analytical size exclusion chromatography of purified wild-type GntC and mutants
[2] = system: N=C(N)NC[C@@H](O)C[C@H](N)C(=O)O; assay: purified protein; details: KPi buffer; PLP cofactor co-purified; cyclodehydration to L-enduracididine
[3] = target: GntC N52A (Sphaerospermopsis torques-reginae ITEP-024); assay: SEC; analytical size exclusion chromatography of purified wild-type GntC and mutants
[4] = target: GntC S25A (Sphaerospermopsis torques-reginae ITEP-024); assay: as above
[5] = target: GntC T84A (Sphaerospermopsis torques-reginae ITEP-024); assay: as above
[6] = target: GntC N52Q (Sphaerospermopsis torques-reginae ITEP-024); assay: as above
[7] = target: GntC E9D (Sphaerospermopsis torques-reginae ITEP-024); assay: as above
[8] = target: GntC K219A (Sphaerospermopsis torques-reginae ITEP-024); assay: as above
[9] = target: GntC T84V (Sphaerospermopsis torques-reginae ITEP-024); assay: as above
[10] = target: GntC E9Q (Sphaerospermopsis torques-reginae ITEP-024); assay: as above
[11] = target: GntC E9A (Sphaerospermopsis torques-reginae ITEP-024); assay: as above
[12] = target: Sphaerospermopsis torques-reginae ITEP-024 GntC (Sphaerospermopsis torques-reginae ITEP-024); assay: as above

Substance: GntC N52D (enzyme)
- stoichiometry N [1]: 2

Substance: GntC (Sphaerospermopsis torques-reginae ITEP-024)
- Km [2]: 150 ± 80 µM
- kcat [2]: 0.0061 ± 0.008 min^–1

Substance: GntC N52A (enzyme)
- stoichiometry N [3]: 2

Substance: GntC S25A (enzyme)
- stoichiometry N [4]: 2

Substance: GntC T84A (enzyme)
- stoichiometry N [5]: 2

Substance: GntC N52Q (enzyme)
- stoichiometry N [6]: 2

Substance: GntC E9D (enzyme)
- stoichiometry N [7]: 2

Substance: GntC K219A (enzyme)
- stoichiometry N [8]: 2

Substance: GntC T84V (enzyme)
- stoichiometry N [9]: 2

Substance: GntC E9Q (enzyme)
- stoichiometry N [10]: 2

Substance: GntC E9A (enzyme)
- stoichiometry N [11]: 2

Substance: Sphaerospermopsis torques-reginae ITEP-024 GntC (enzyme)
- stoichiometry N [12]: 2
